In the supplement of paper PMC7877785:
± gives the uncertainty stated by the source.

Assay: self-splicing fitness, log relative to wild type (ln ratio); higher = more splicing; Tetrahymena group I intron in knt gene, E. coli kanamycin selection, DiMSum; sequences stand for … in CUCUCU…GGAGGGAAAAGUUAUCAGGCAUGCACCUGGUAGCUAGUCUUUAAACCAAUAGAUUGCAUCGGUUUAAAAGGCAAGACCGUCAAAUUGCGGGAAAGGGGUCAACAGCCGUUCAGUACCAAGUCUCAGGGGAAACUUUGAGAUGGCCUUGCAAAGGGUAUGGUAAUAAGCUGACGGACAUGGUCCUAACCACGCAGCCAAGUCCUAAGUCAACAGAUCUUCUGUUGAUAUGGAUGCAGUUCACAGACUAAAUGUCGGUCGGGGAAGAUGUAUUCUUCUCAUAAGAUAUAGUCGGACCUCUCCUUAAUGGGAGCUAGCGGAUGAAGUGAUGCAACACUGGAGCCGCUGGGAACUAAUUUGUAUGCGAAAGUAUAUUGAUUAGUUUUGGAGUACUCGUGGUCG
Outline: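 Six replicate transformations of E. coli BL21(DE3) with a pET-22b(+) library were grown overnight at 37°C or 30°C. The library randomised all eight P1ex-region intron nucleotides, the intron lying in the knt kanamycin-resistance gene, and plates were LB agar with or without 25 μg/mL kanamycin plus 100 μg/mL carbenicillin, 50 μM IPTG and 0.2% rhamnose. Pooled colonies were amplicon-sequenced on an Illumina HiSeq 2500, and fitness is the DiMSum error-weighted combination of wild-type-normalised replicate fold changes, kanamycin versus none.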

Sequence | self-splicing fitness (ln) (30 °C) | self-splicing fitness (ln) (37 °C)
CCUGAGCAAUAUUACGACUC | -1.44 ± 0.36 | -1.6 ± 0.49
CCUGAGCAAUAUUACGCAGA | -3.44 ± 0.23 | -1.96 ± 0.15
CCUGAGCAAUAUUACGCAUC | -3.39 ± 0.44 | 
CCUGAGCAAUAUUACGCCAC | -3.2 ± 0.45 | -1.35 ± 0.36
CCUGAGCAAUAUUACGCCAG | -2.75 ± 0.41 | -1.62 ± 0.32
CCUGAGCAAUAUUACGCCGG |  | -1.71 ± 0.39
CCUGAGCAAUAUUACGCGAG | -4.35 ± 0.42 | -2.63 ± 0.28
CCUGAGCAAUAUUACGCGUU | -3.53 ± 0.29 | -3.12 ± 0.35
CCUGAGCAAUAUUACGCUUC | -3.16 ± 0.48 | -2.4 ± 0.41
CCUGAGCAAUAUUACGGAAG | -2.82 ± 0.15 | -1.29 ± 0.12
CCUGAGCAAUAUUACGGACU | -1.55 ± 0.13 | -3.3 ± 0.32
CCUGAGCAAUAUUACGGCGU | -3.51 ± 0.2 | -2.88 ± 0.19
CCUGAGCAAUAUUACGGGCC | -3.87 ± 0.31 | -2.45 ± 0.23
CCUGAGCAAUAUUACGGGUC | -2.95 ± 0.17 | -2.87 ± 0.27
CCUGAGCAAUAUUACGGUGU | -3.89 ± 0.24 | -2.32 ± 0.14
CCUGAGCAAUAUUACGUAAG | -3.03 ± 0.19 | -1.6 ± 0.12
CCUGAGCAAUAUUACGUACA | -3.13 ± 0.33 | -0.722 ± 0.3
CCUGAGCAAUAUUACGUCGG | -4.36 ± 0.36 | -2.47 ± 0.23
CCUGAGCAAUAUUACGUCGU | -2.02 ± 0.43 | -2.06 ± 0.27
CCUGAGCAAUAUUACGUGAA | -4.54 ± 0.34 | -2.83 ± 0.21
CCUGAGCAAUAUUACGUGCC |  | -1.6 ± 0.32
CCUGAGCAAUAUUACGUUAA | -2.92 ± 0.24 | -2.52 ± 0.26
CCUGAGCAAUAUUACGUUAU | -3.15 ± 0.26 | -1.96 ± 0.21

Sequence | self-splicing fitness (ln) (30 °C) | self-splicing fitness (ln) (37 °C)
CCUGAGCAAUAUUACGUUCU | -3.63 ± 0.25 | -2.43 ± 0.25
CCUUAGCAAUAUUACGAACG | -0.742 ± 0.18 | -0.847 ± 0.25
CCUUAGCAAUAUUACGACCA | -2.66 ± 0.36 | 
CCUUAGCAAUAUUACGAGUC |  | -2.7 ± 0.28
CCUUAGCAAUAUUACGAUGC | -4.15 ± 0.27 | -2.62 ± 0.17
CCUUAGCAAUAUUACGCCGG | -3.82 ± 0.28 | -2.73 ± 0.26
CCUUAGCAAUAUUACGCCUG |  | -2.89 ± 0.34
CCUUAGCAAUAUUACGCCUU | -3.52 ± 0.32 | -2.57 ± 0.24
CCUUAGCAAUAUUACGCGGA | -2.93 ± 0.19 | -2.55 ± 0.21
CCUUAGCAAUAUUACGCUAU | -3.14 ± 0.14 | -2.64 ± 0.18
CCUUAGCAAUAUUACGCUGA | -3.23 ± 0.47 | 
CCUUAGCAAUAUUACGGAUA | -2.98 ± 0.29 | -1.92 ± 0.37
CCUUAGCAAUAUUACGGCGU | -3.94 ± 0.33 | -2.78 ± 0.32
CCUUAGCAAUAUUACGGGGG | -3.17 ± 0.23 | -1.39 ± 0.23
CCUUAGCAAUAUUACGGGUA | -2.65 ± 0.19 | -2.38 ± 0.26
CCUUAGCAAUAUUACGGGUU |  | -1.5 ± 0.21
CCUUAGCAAUAUUACGGUAC | -4.06 ± 0.21 | -2.44 ± 0.19
CCUUAGCAAUAUUACGGUUU | -4.06 ± 0.16 | -2.42 ± 0.14
CCUUAGCAAUAUUACGUAAA | -3.63 ± 0.26 | -1.88 ± 0.3
CCUUAGCAAUAUUACGUAGU | -2.48 ± 0.095 | -0.664 ± 0.098
CCUUAGCAAUAUUACGUGCG | -3.52 ± 0.21 | -2.04 ± 0.17
CCUUAGCAAUAUUACGUGGA | -4.29 ± 0.34 | -2 ± 0.2
